Assay results: patent US20160152728A1 (AFFEMED, published 2016)

How the values were obtained:
[1] = target: T1, EGFRvIII-Fc fusion antigen (human, UniProt P00533 25-645); test: ELISA on coated EGFRvIII-Fc; TandAb detected with Protein L-HRP, Abs(450nm) [EGFRvIII binding]
[2] = target: T2, EGFRvIII expressed on cells (CHO^EGFRvIII, F98^EGFRvIII) (UniProt P00533 25-1210); test: cell-based or functional assay
T2 construct: whole, on cells; the vIII deletion must be applied; also called deletion mutant EGFRvIII

[3] = target: T2, EGFRvIII expressed on cells …; test: flow cytometry on F98^EGFRvIII cells; scFv detected with anti-His followed by FITC-conj. goat anti-mouse IgG, mean fluorescence intensity
[4] = target: T1, EGFRvIII-Fc fusion antigen; test: SPR Biacore T200, EGFRvIII-Fc captured via anti-hu Fc, scFv analyte, 1:1 model;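 note: Multi-cycle kinetics on a CM5 chip in HBS-P+ running buffer, 180 s scFv association then 540 s dissociation, with blank flow cell signals subtracted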
Description: Anti-hu Fc IgG CM5-chip was prepared by covalent amine coupling by using the Amine-Coupling-Kit (GE), according to the instructions of the manufacturer. The IgG was diluted in the provided immobilization buffer (10 mM sodium acetate, pH 5.0) to a concentration of 25 μg/ml. For the coupling procedure, the predefined method “Amine” of the Biacore T200 control software was applied. A target level between 5000-10000 RU for all 4 flow cells was reached. The surface of the chip was activated with EDC/NHS before injecting the recombinant protein solutions. Free binding sites on the surface were blocked with ethanolamine. 1×HBS-P+ was selected as a running buffer for the entire coupling procedure.
Flowcell 1 and 3 were blanks. 1×HBS-P+ was used as running buffer for the entire procedure. The scFv antibodies were injected at a flow rate of 30 μL/min for 180 sec over all four flowcells. Signals measured in the flowcell 1 without captured antigen were subtracted from signals in the flowcell 2 to correct the binding curves for background binding. Signals measured in the flowcell 3 without captured antigen were subtracted from signals in the flowcell 4 to correct the binding curves for background binding. After 540 sec dissociation time the chip was regenerated as described below.
The Kinetics of scFv antibodies were determined in MCK (Multi Cycle Kinetic) measurements. For estimation of apparent binding affinities the binding curves were evaluated using the “Kinetic” method included in the Biacore evaluation software. By this method the binding curves are globally fitted by the software using the “Langmuir 1:1 interaction model”.

[5] = target: T3, wild type EGFR expressed on cells (CHO^EGFR, F98^EGFR) (human, UniProt P00533 25-1210); test: flow cytometry on F98^EGFR cells; scFv detected with anti-His followed by FITC-conj. goat anti-mouse IgG
T3 construct: whole, on cells; also called native EGFR; EGFRwt
Description: After a second washing cycle, the cells were incubated with 0.1 mL of 15 μg/mL FITC-conjugated goat anti-mouse IgG antibodies under the same conditions as before. As a control, cells were incubated with the anti-His IgG 13/45/31 followed by the FITC-conjugated goat anti-mouse IgG antibodies without scFvs. The cells were then washed again and resuspended in 0.2 mL of FACS buffer containing 2 μg/mL propidium iodide in order to exclude dead cells. The fluorescence of 1×10⁴ living cells was measured using a Beckman-Coulter FC500 MPL flow cytometer using the MXP software (Beckman-Coulter, Krefeld, Germany) or a Millipore Guava EasyCyte flow cytometer using the Incyte software (Merck Millipore, Schwalbach, Germany). Mean fluorescence intensities of the cell samples were calculated using CXP software (Beckman-Coulter, Krefeld, Germany) or Incyte software (Merck Millipore, Schwalbach, Germany).
In case of analysis with Beckman-Coulter FC500 MPL flow cytometer 0.5×10⁶ cells/staining and in case of Millipore Guava EasyCyte flow cytometer only 0.25×10⁶ cells/staining were used.

Row | Binder | EC50 (read off the curve) [1] | EC50 (read off the curve) [3] | KD improvement factor vs parental scFv Li3G30 [4] | Kd [4] | kOFF improvement factor vs parental scFv Li3G30 [4] | kON improvement factor vs parental scFv Li3G30 [4] | koff [4] | kon [4] | binding result [5] | EC50 in the cytotoxicity assay (CHO^EGFRvIII target cells) [2]
1 | EGFRvIII/CD3 tandem diabody with parental EGFRvIII binding domain Li3G30 and CD3 domain v64, domain order (i) VL^CD3-VH^EGFRvIII-VL^EGFRvIII-VH^CD3 … (bispecific antibody, part only; not given: CD3 v64 domain and linkers, not shown: small tags and cut ends) chain, part: EVQLVQSGAEVKKPGESLKISCKGSGYSFTSYWIGWVRQMPGKGLEWMGIIYPGDSDTRYSPSFQGQVTISADKSISTAYLQWSSLKASDTAMYYCARLGSSWTNDAFDIWGQGTMVTVSSSYELTQPPSVSVSPGQTARITCSGDALPKQYAYWYQQKPGQAPVLVIYKDSERPSGIPERFSGSSSGTTVTLTISGVQAEDEADYYCQSADSSGTPLIVFGTGTKLTVL |  |  |  |  |  |  |  |  |  | 0.025 nM
2 | scFv 469 (scFv, V domains shown, One-chain scFv, His-tagged) VH: EVQLVQSGAEVKKPGESLKISCKGSGYSFNSYWIGWVRQMPGKGLEWMGIIYPGDSDTRYSPSFQGQVTISADKSISTAYLQWSSLKASDTAMYYCARLGSSWTNDAFDIWGQGTLVTVSS VL: SYELTQPPSVSVSPGQTARITCSGDTLPKQYAYWYQQKPGQAPVLVIYKDSERPSGIPERFSGSSSGTTVTLTISGVQAEDEADYYCQSVDVSGTYVVFGGGTKLTVL |  | 2 nM | 10.8 fold | 0.72 nM | 2 fold | 5.2 fold | 0.0006 s⁻¹ | 830000 M⁻¹ s⁻¹ |  | 
3 | scFv 475 (scFv, V domains shown, One-chain scFv, His-tagged) VH: EVQLVQSGAEVKKPGESLKISCKGSGYSFTSYWIGWVRQMPGKGLEWMGIIYPDDSDTRYSPSFQGQVTISADKSISTAYLQWSSLKASDTAMYYCARLGSSWTNDAFDIWGQGTLVTVSS VL: SYELTQPPSVSVSPGQTARITCSGDALPKQYAYWYQQKPGQAPVLVIYKDTERPSGIPERFSGSSSGTTVTLTISGVQAEDEADYYCQSVDSSGTYVVFGGGTKLTVL |  | ~2 nM | 11.1 fold | 0.7 nM | 1.5 fold | 7.5 fold | 0.0008 s⁻¹ | 1.2e+06 M⁻¹ s⁻¹ | no binding (tested: about 3300 nM) | 
4 | scFv 479 (scFv, V domains shown, One-chain scFv, His-tagged) VH: EVQLVQSGAEVKKPGESLKISCKGSGYDFSSYWIGWVRQMPGKGLEWMGIIYPGDSDTIYSPSFQGQVTISADKSISTAYLQWSSLKASDTAMYYCARLGSSWTNDAFDIWGQGTLVTVSS VL: SYELTQPPSVSVSPGQTARITCSGAALPEQYAYWYQQKPGQAPVLVIYKDSERPSGIPERFSGSSSGTTVTLTISGVQAEDEADYYCQSVDSSGTFYVFGGGTKLTVL |  |  | 3.1 fold | 2.54 nM | 1.3 fold | 2.4 fold | 0.00096 s⁻¹ | 380000 M⁻¹ s⁻¹ |  | 
5 | scFv 472 (scFv, V domains shown, One-chain scFv, His-tagged) VH: EVQLVQSGAEVKKPGESLKISCKGSGYSFGYYWIGWVRQMPGKGLEWMGIIYPGDSHTRYSPSFQGQVTISADKSISTAYLQWSSLKASDTAMYYCARLGSSWTNDAFDIWGQGTLVTVSS VL: SYELTQPPSVSVSPGQTARITCSGDALPKQYAYWYQQKPGQAPVLVIYKDTERPSGIPERFSGSSSGTTVTLTISGVQAEDEADYYCQSVDSSGTQVVFGGGTKLTVL |  | ~1 nM | 96.3 fold | 0.08 nM | 4 fold | 23.8 fold | 0.0003 s⁻¹ | 3.8e+06 M⁻¹ s⁻¹ | no binding (tested: about 3300 nM) | 
6 | scFv 474 (scFv, V domains shown, One-chain scFv, His-tagged) VH: EVQLVQSGAEVKKPGESLKISCKGSGYSFSHYWIGWVRQMPGKGLEWMGITYPGDVDTRYDPSFQGQVTISADKSISTAYLQWSSLKASDTAMYYCARLGSSWTNDAFDIWGQGTLVTVSS VL: SYELTQPPSVSVSPGQTARITCSGDALPKTYAYWYQQKPGQAPVLVIYKDTERPSGIPERFSGSSSGTTVTLTISGVQAEDEADYYCQSADSSGTYLVFGGGTKLTVL |  | ~2 nM | 16.3 fold | 0.48 nM | 0.8 fold | 20.6 fold | 0.0016 s⁻¹ | 3.3e+06 M⁻¹ s⁻¹ | no binding (tested: about 3300 nM) | 
7 | scFv 470 (scFv, V domains shown, One-chain scFv, His-tagged) VH: EVQLVQSGAEVKKPGESLKISCKGSGYSFNSYWIGWVRQMPGKGLEWMGIIYPGDSDTRYSPSFQGQVTISADKSISTAYLQWSSLKASDTAMYYCARLGSSWTNDAFDIWGQGTLVTVSS VL: SYELTQPPSVSVSPGQTARITCSGDALDKQYAYWYQQKPGQAPVLVIYKDSERPSGIPERFSGSSSGTTVTLTISGVQAEDEADYYCQSVDSSETYVVFGGGTKLTVL |  | ~2 nM | 6.6 fold | 1.18 nM | 2.4 fold | 2.7 fold | 0.0005 s⁻¹ | 430000 M⁻¹ s⁻¹ | no binding (tested: about 3300 nM) | 
8 | scFv 476 (scFv, V domains shown, One-chain scFv, His-tagged) VH: EVQLVQSGAEVKKPGESLKISCKGSGYSFTSYWIGWVRQMPGKGLEWMGIIYPGDSDTRYSPSFQGQVTISADKSISTAYLQWSSLKASDTAMYYCARLGSSWTNDAFDIWGQGTLVTVSS VL: SYELTQPPSVSVSPGQTARITCSGDNIPHQYAYWYQQKPGQAPVLVIYKDTERPAGIPERFSGSSSGTTVTLTISGVQAEDEADYYCQSADPTGAYLVFGGGTKLTVL |  | ~2 nM | 5 fold | 1.56 nM | 1.1 fold | 4.3 fold | 0.0011 s⁻¹ | 690000 M⁻¹ s⁻¹ | no binding (tested: about 3300 nM) | 

Now from value to binder, other results behind:

Row | EC50 (read off the curve) [1] | EC50 (read off the curve) [3] | KD improvement factor vs parental scFv Li3G30 [4] | Kd [4] | kOFF improvement factor vs parental scFv Li3G30 [4] | kON improvement factor vs parental scFv Li3G30 [4] | koff [4] | kon [4] | binding result [5] | Binder | EC50 in the cytotoxicity assay (CHO^EGFRvIII target cells) [2]
9 | 0.9 nM |  |  |  |  |  |  |  |  | TandAb EGFRvIII(ABC479)/CD3, domain order (iv) VH^EGFRvIII-VL^CD3-VH^CD3-VL^EGFRvIII (bispecific antibody, part only; not given: CD3 domain and linkers, part only) tandem diabody polypeptide (homodimer), part: QSGAEVKKPGEVQLVESLKISCKGSGYDFSSYWIGWVRQMPGKGLEWMGIIYPGDSDTIYSPSFQGQVTISADKSISTAYLQWSSLKASDTAMYYCARLGSSWTNDAFDIWGQGTLVTVSSSYELTQPPSVSVSPGQTARITCSGAALPEQYAYWYQQKPGQAPVLVIYKDSERPSGIPERFSGSSSGTTVTLTISGVQAEDEADYYCQSVDSSGTFYVFGGGTKLTVL | 
10 |  | ~2 nM | 11.6 fold | 0.67 nM | 1.5 fold | 7.5 fold | 0.0008 s⁻¹ | 1.2e+06 M⁻¹ s⁻¹ | no binding (tested: about 3300 nM) | scFv 473 (scFv, V domains shown, One-chain scFv, His-tagged) VH: EVQLVQSGAEVKKPGESLKISCKGSGYSFSSYWIGWVRQMPGKGLEWMGIIYPGDSDTRYSPSFQGQVTISADKSISTAYLQWSSLKASDTAMYYCARLGSSWTNDAFDIWGQGTLVTVSS VL: SYELTQPPSVSVSPGQTARITCSGHALPSQYAYWYQQKPGQAPVLVIYKDTERPSGIPERFSGSSSGTTVTLTISGVQAEDEADYYCQSVDSSGTSVIFGGGTKLTVL | 
11 |  | ~2 nM | 6 fold | 1.3 nM | 0.3 fold | 18.8 fold | 0.0038 s⁻¹ | 3e+06 M⁻¹ s⁻¹ | no binding (tested: about 3300 nM) | scFv 477 (scFv, V domains shown, One-chain scFv, His-tagged) VH: EVQLVQSGAEVKKPGESLKISCKGSGYSFSSYWIGWVRQMPGKGLEWMGIIYPGDSDTRYSPSFQGQVTISADKSISTAYLQWSSLKASDTAMYYCARLGSSWTNDAFDIWGQGTLVTVSS VL: SYELTQPPSVSVSPGQTARITCSGDYLPKQYAYWYQQKPGQAPVLVIYKDTERPSGIPERFSGSSSGTTVTLTISGVQAEDEADYYCQSADASGTYYVFGGGTKLTVL | 
12 |  | ~2 nM | 49.6 fold | 0.16 nM | 5.2 fold | 8.8 fold | 0.00023 s⁻¹ | 1.4e+06 M⁻¹ s⁻¹ | no binding | scFv 478 (scFv, V domains shown, One-chain scFv, His-tagged) VH: EVQLVQSGAEVKKPGESLKISCKGSGYSFNSYWIGWVRQMPGKGLEWMGIIYPGDEDTRYSPSFQGQVTISADKSISTAYLQWSSLKASDTAMYYCARLGSSWTNDAFDIWGQGTLVTVSS VL: SYELTQPPSVSVSPGQTARITCSGDALPKQYAYWYQQKPGQAPVLVIYKDTERPSGIPERFSGSSSGTTVTLTISGVQAEDEADYYCQSVDPSGTYVVFGGGTKLTVL | 
13 |  | ~2 nM | 29.9 fold | 0.26 nM | 4.1 fold | 6.9 fold | 0.00029 s⁻¹ | 1.1e+06 M⁻¹ s⁻¹ | no binding (tested: about 3300 nM) | scFv 471 (scFv, V domains shown, One-chain scFv, His-tagged) VH: EVQLVQSGAEVKKPGESLKISCKGSGYSFNSYWIGWVRQMPGKGLEWMGIIYPGDSANRYSPSFQGQVTISADKSISTAYLQWSSLKASDTAMYYCARLGSSWTNDAFDIWGQGTLVTVSS VL: SYELTQPPSVSVSPGQTARITCSGDYLPKQYAYWYQQKPGQAPVLVIYKDTERPSGIPERFSGSSSGTTVTLTISGVQAEDEADYYCQSVDSSHPSVVFGGGTKLTVL | 
